The labels stand for the following.
B1: glmS ribozyme (parent)
chain: AUAAAAGCGCCAGAACUACAGAAAUGUAGUUGACGAGGAGGAGGUUUAUCGAAUUUUCGGCGGAUGCCUCCAAA

± gives the standard error. This sample holds only a part of the variants without activity.

The variants in the first series derive from B1. As to the kind of experiment: self-cleavage kobs at 2500 uM GlcN6P; higher = faster cleavage; RNA array. The following applies: with glucosamine-6-phosphate. Summed up: (§1)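 Weighted Michaelis–Menten fits across concentrations supplied kcat and KM, based on kobs from one- or two-exponential decay fits to normalised per-tile medians. The data came from barcoded ribozyme variants transcribed in situ by E. coli RNA polymerase on sequenced MiSeq chips and tracked at 37 °C by a hybridised Cy3 probe. Glucosamine-6-phosphate (40 μM to 10 mM) in HEPES/KCl/Mg(OAc)2 buffer was flowed in.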
Consider AUAAAAGCGCCUGAACUACAGAAAUGUAGUAGACGAGGAGGAGGUUUAUGGAAUUUUCGGUGGAUGCCUCCAAA, for which the “self-cleavage kobs at 2500 uM GlcN6P” value is 6.19e-05 ± 2.1e-05 s⁻¹.
Still for that read-out and setting: to AUAAAAGCGUCAGAACUACAGAAAUGUAGUUGACGAGGAGGAGGUUUAUCCAAUUUUCUGCGGAUGUCUCCAAA belongs less than 1e-05 s⁻¹; to AUAAAAGCGCCAGAACUACAGAAAUGUAGUUGAAGAGUAAGAGCUUUAUCGAAUCUUCGGCGGAUGCCUGCAAA, less than 1e-05 s⁻¹.
On the same count and under the same terms, to AUAAAAGGGCCGGAACUACAGAAAUGUAGUUGACGAGGAGGAGGUUUAUCUAAUUUUUGGCGGAUGAUUCCAAA belongs 0.000214 ± 7.9e-05 s⁻¹; to AUAAAAGCGCCAGAACUACAGAAAUGUAGUUGUUGAGGCGGAGGUUUAUCGAAUUUUCGGCGGAUGCCUCCAAA, less than 1e-05 s⁻¹.
The same measure, in the same setting: the same measure for AUAAAGGCGCCAGAACUACAGAAAUGUAGUUGACGAGGAGGAGGUUUAUCCAAUUUUCGGCAGAUGCCUCCAAA: less than 1e-05 s⁻¹; for AUAAAAGCGCUAGAACUACAGAAAUGUAGUUGACGAGGAGGAGGUUUAUCGAAUAUUGGGCGGAUGCCUCCAAA: 5.84e-05 ± 1.6e-05 s⁻¹.
Turning to AUAAAAGCGCCAGAACUACAGAAAUGUAGUUGACGAGGAGGAGGUUUAUCGAAUUUUACGCGGAUGCCUCUAAA, the “self-cleavage kobs at 2500 uM GlcN6P” value was less than 1e-05 s⁻¹.
On the same count and under the same terms, to AUAAAGGCGCCAGAACUACAGAAAUGUAGUCGACGGGGAGGUGGUUUAUCGAAUUUUCGGCGGAUGCCUCCAAA belongs less than 1e-05 s⁻¹.
The same measure, in the same setting: the same measure for AUAAAAUCGCCAGAACUACAGAAAUGUAGUUGACCAGGAGGAAGUUUGUCGAAUUUUCGGCGGAUGCCUCCAAA: less than 1e-05 s⁻¹; for AUACAAGCGCCAGAACUACAGAAAUGUAGUUGACGAGGAGGAGGUUUAUCGAAUUUUCGGCGGAUGCCUCCAAA: 0.0314 ± 0.0074 s⁻¹; for AUAAAAGCGCCAGAACUACAGAAAUGUAGUUGACGAGGAGGAGGUGUAUCGAAUUUUCGGAGGAUGCCUCCAAA: less than 1e-05 s⁻¹.
Still for that read-out and setting: the same measure for AUAAAAGCGCCAAUACUACAGAAAUGUAGUUGACGAGGAGGAGGUUUAUCGAAUUAUCGGCGGAUGCCUCCAAA: 0.000412 ± 0.0001 s⁻¹.
As for AUAAAAGCGCCAGAAGUACAGAAAUGUAGAUGACGAGGAGGAGGUUUAUCGAAUUUUCGGCGGAUGCCUCUAAA, the “self-cleavage kobs at 2500 uM GlcN6P” value stood at 0.000103 ± 3.5e-05 s⁻¹.
Still for that read-out and setting: to AUAAAAGCGCCAGAACUACAGAAAUGUAGUUGACGAGGAGGAGGUUUAUCGCAUUUCCGGCGGAUUCCUCCAAA belongs less than 1e-05 s⁻¹; to AUAAAAGCGCCGGAACUACAGAAAUGUAGUUGACGAGGAGGAGGGUUAUCGAAUUUUCGUCGGAUGCCUCCAAA, less than 1e-05 s⁻¹; to AUAAAAGCGCCAGAACUACAGAAAUGUAGUUGACGAGGAGGCGGUAUAUCGAAUUAUCGGCGGAUGCCUCCAAA, less than 1e-05 s⁻¹.
As to AUAAAGGCGCCAGAACUACAGAAAUGUAGUUGACGAGGAGGAGGUUUAUCGAAUAUUCGGGGGAUGCCUCCAAA, the “self-cleavage kobs at 2500 uM GlcN6P” value is less than 1e-05 s⁻¹.
Regarding AUAAAAGCGCCAGAUCUACAGAAAUGUAGUUGACGAGGAGGUCGUUUAUCGAAUUUUCGGGGGAUGCCACCAAA, the “self-cleavage kobs at 2500 uM GlcN6P” value was less than 1e-05 s⁻¹.
On the same count and under the same terms, the same measure for AUAAAAGCGCCGGAACUACAGAAAUGUAGUUGACGAGGUGGAGGUUUAGCGAAUGUUCGGCGGAUGCCUCCAAA: less than 1e-05 s⁻¹.
On the same count and under the same terms, the same measure for AUAAAAGCGGCAGAACUACAGAAAUGUAGUUGAUGAUGAGGGGGUUUAUCGAAUUUUCGGCGGAUGCCUCCAAA: less than 1e-05 s⁻¹.
Still for that read-out and setting: the same measure for AUAAAAGCGACAGAACUACAGAAAUGUAGUUGACGAGGAUGAGGUUUAUCGAAUUAUCGGCGGACGCCUCCAAA: less than 1e-05 s⁻¹; for AUAAAAGCGCCAGACCUACAGAAAUGUAGUCGACGAGGAGGAGGAUUAUCGAAUUUUCUGCGGAAGCCUCCAAA: less than 1e-05 s⁻¹.
For the variant AUAAAAGCGUCAGAACUACAGAAAUGUAGUUGACGAGGAGGAGGUUUAUCGAAUUUGCGGCGGAUGUCUUCAAA, the “self-cleavage kobs at 2500 uM GlcN6P” value is 6.12e-05 ± 2.7e-05 s⁻¹.
Same read-out and setting: the same measure for AUAAAAGCGCCAGAAGUACAGAAAUGUAGUUGACGGGGAGGAGGUUUAUCGAAUUUUCGGCGGAUGCCGCCAAA: 4.76e-05 ± 2.4e-05 s⁻¹; for AUAAAAGCGCCAGAAAUACAGAAAUGUAGUUUACGAGGAGGAUGUUUAUCGAAUUUUCGGGGGAUGCCUCCAAA: less than 1e-05 s⁻¹; for AUAAAAGCGCCAGAACUACAGAAAUGUAGUUGCCGAGAAGGAGGUUUAUCGAAUUUUUGGCGGACGCCUCCAAA: less than 1e-05 s⁻¹.
Consider AUAAAAGCGCCAGAACUACAGAAAUGUAGUGGACGAGGAGGAGGUUUAGCGAAUUUUCCGCGGAUGCCUCCAAA, for which the “self-cleavage kobs at 2500 uM GlcN6P” value is less than 1e-05 s⁻¹.
Still for that read-out and setting: to AUAAAAGCGCCAGAACUACAGAAAUGUAGUUGACGAGGAGGUGGUUGAUCGAAUUUUCGGCGGAUGCCACCAAA belongs 0.0115 ± 0.0021 s⁻¹; to AUAAAAGCGCCAGAACUACAGAAAUGUAGUUGACGGGGAGGAGGUUUUUCGAAUUUUCGGCGGCUGCCUCCAAA, less than 1e-05 s⁻¹; to AUAAAAGCGCCCGAACUACAGAAAUGUAUUUGACGAGGAGGAGGUUUAUCGAAUUUUCGGCGGAAGCCUCCAAA, 0.000175 ± 4.1e-05 s⁻¹.
On the same count and under the same terms, the same measure for AUAAAAGCGCCAGAACUACAGAAAUGUAGUUGACGAGGAGGAUGUUUAUCGAAUUUUCGGCGGAUGCAUUAAAA: 9.92e-05 ± 2.8e-05 s⁻¹; for AUAAAAGCGCCAGAACUACAGAAAUGUAGUUGGCGAGGAGGGGGUUUAUCGGAUUUUCGCCGGAUGCCUCCAAA: less than 1e-05 s⁻¹.

In the next series the parent is B1. Put plainly: self-cleavage kobs at 10000 uM GlcN6P; higher = faster cleavage; RNA array. The following applies: with glucosamine-6-phosphate. A digest of the protocol: as §1
With AUAAAAGCGCCAGAACUACAGAAAUGUAGUUGACGAGGAGGAGGUGUAUCGAAUUUUCGGAGGAUGCCUCCAAA, the “self-cleavage kobs at 10000 uM GlcN6P” value is less than 1e-05 s⁻¹.
Same read-out and setting: to AUAAAAGCGCCAAUACUACAGAAAUGUAGUUGACGAGGAGGAGGUUUAUCGAAUUAUCGGCGGAUGCCUCCAAA belongs 0.000631 ± 0.00023 s⁻¹.
Same read-out and setting: to AUAAAAGCGCCAGACCUACAGAAAUGUAGUCGACGAGGAGGAGGAUUAUCGAAUUUUCUGCGGAAGCCUCCAAA belongs less than 1e-05 s⁻¹; to AUAAAAGCGCCCGAACUACAGAAAUGUAUUUGACGAGGAGGAGGUUUAUCGAAUUUUCGGCGGAAGCCUCCAAA, 0.000443 ± 7.6e-05 s⁻¹.
